Earlier results as cited in publication PMC4768738.

Columns and labels:
p55 (Homo sapiens) = p55 (Homo sapiens) (UniProt Q00013)
ankyrin (Homo sapiens) = ankyrin (Homo sapiens) (UniProt P16157)
Chain of UniProt P16157 (P16157 whole entry): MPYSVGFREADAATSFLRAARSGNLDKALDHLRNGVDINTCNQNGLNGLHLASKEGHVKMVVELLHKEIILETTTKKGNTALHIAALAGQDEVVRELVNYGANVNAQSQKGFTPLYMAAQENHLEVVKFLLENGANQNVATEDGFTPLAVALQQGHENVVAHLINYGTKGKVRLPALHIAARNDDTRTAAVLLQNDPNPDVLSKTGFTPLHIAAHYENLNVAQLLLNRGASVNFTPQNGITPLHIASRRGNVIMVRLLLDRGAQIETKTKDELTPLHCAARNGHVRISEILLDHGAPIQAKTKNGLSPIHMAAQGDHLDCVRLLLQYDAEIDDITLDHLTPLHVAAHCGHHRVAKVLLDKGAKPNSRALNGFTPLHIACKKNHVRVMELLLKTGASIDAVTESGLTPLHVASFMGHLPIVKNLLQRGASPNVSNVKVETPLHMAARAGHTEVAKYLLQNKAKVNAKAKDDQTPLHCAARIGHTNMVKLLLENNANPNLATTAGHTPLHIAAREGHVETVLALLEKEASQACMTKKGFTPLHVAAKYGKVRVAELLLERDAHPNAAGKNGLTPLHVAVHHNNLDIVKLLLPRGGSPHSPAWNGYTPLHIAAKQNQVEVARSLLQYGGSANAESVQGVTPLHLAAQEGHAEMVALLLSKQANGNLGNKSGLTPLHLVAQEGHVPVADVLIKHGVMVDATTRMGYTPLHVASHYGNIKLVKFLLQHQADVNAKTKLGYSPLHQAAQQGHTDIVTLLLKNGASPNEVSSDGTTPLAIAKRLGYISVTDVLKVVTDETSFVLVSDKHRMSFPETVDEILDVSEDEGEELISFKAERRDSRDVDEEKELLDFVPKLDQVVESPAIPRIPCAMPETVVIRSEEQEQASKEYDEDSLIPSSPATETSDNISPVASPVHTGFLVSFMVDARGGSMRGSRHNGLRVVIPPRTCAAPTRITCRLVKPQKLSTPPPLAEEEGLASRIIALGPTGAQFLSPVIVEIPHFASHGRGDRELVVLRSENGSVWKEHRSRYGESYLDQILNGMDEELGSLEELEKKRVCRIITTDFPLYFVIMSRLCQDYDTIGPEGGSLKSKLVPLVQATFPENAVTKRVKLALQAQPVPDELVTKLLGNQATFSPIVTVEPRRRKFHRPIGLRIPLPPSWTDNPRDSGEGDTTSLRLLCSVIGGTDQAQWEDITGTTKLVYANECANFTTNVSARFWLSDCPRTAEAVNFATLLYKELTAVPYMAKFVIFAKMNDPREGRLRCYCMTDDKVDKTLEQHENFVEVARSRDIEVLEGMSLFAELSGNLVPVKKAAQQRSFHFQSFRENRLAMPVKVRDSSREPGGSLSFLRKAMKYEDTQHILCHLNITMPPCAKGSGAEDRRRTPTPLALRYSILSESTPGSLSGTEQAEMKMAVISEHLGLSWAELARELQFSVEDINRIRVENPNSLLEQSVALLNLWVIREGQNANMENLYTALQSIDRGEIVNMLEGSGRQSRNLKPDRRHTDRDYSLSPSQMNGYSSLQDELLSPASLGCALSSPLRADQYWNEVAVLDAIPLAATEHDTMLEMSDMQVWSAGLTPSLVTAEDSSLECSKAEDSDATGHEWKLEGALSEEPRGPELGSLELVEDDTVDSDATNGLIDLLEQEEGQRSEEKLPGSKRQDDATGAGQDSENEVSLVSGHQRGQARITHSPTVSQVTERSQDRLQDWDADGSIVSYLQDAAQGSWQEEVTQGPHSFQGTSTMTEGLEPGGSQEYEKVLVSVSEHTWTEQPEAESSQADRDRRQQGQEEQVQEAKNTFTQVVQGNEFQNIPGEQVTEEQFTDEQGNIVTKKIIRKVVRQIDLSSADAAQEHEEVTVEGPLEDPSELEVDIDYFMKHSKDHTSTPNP

Chain of UniProt Q00013 (Q00013 2-466): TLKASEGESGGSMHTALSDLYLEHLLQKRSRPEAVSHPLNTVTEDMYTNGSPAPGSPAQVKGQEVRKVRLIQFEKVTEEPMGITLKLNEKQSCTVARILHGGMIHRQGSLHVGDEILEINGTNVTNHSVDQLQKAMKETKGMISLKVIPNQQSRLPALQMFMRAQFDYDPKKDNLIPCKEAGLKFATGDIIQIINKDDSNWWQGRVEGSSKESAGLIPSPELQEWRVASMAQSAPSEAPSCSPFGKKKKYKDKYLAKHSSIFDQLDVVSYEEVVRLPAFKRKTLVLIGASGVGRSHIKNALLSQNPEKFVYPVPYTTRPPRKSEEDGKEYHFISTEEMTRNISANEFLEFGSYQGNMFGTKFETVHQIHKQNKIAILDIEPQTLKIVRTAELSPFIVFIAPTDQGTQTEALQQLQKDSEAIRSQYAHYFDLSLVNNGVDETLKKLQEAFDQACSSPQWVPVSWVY

Kd (p55 (Homo sapiens)) [µM]	Kd (ankyrin (Homo sapiens)) [µM]	Substance
0.1		protein 4.1R (from UniProt P11171)
	0.1	protein 4.2 (from UniProt P16452)
